From patent US20240270846A1 (published 2024)

Target: T1, CD3 epsilon homodimer protein (UniProt P07766 23-126)
T1 construct: construct not described; homodimer as printed; also called CD3 (CD3 epsilon)
Experiment: SPR Biacore T200, CD3 epsilon homodimer immobilized; vs unaltered GLS3000;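 note: antibody variants flowed as analyte over CD3 epsilon homodimer amine-coupled to a CM4 chip, at 25 °C in HBS-EP+ running buffer, fitted with Biacore T200 Evaluation Software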

T1 sequence (P07766 23-126): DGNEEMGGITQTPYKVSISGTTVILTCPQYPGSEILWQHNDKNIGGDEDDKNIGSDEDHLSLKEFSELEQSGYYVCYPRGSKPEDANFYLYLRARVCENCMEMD

KD ratio to GLS3000 (Affinity up)	Binder
1.24	GLS3000 N30I (Kabat) L chain altered form, one-arm antibody with CE115HA000 (antibody, human IgG1, kappa, L234A L235A, N297A, name in Kabat numbering, one-arm antibody) heavy: QVQLVESGGGVVQPGRSLRLSCAASGFTFSNAWMHWVRQAPGKGLEWVAQIKAKSNNYATYYAESVKGRFTISRDDSKNSLYLQMNSLKTEDTAVYYCRYVHYGAYYGVDAWGQGTTVTVSSASTKGPSVFPLAPSSKSTSGGTAALGCLVKDYFPEPVTVSWNSGALTSGVHTFPAVLQSSGLYSLSSVVTVPSSSLGTQTYICNVNHKPSNTKVDKKVEPKSCDKTHTCPPCPAPEAAGGPSVFLFPPKPKDTLMISRTPEVTCVVVDVSHEDPEVKFNWYVDGVEVHNAKTKPREEQYASTYRVVSVLTVLHQDWLNGKEYKCKVSNKALPAPIEKTISKAKGQPREPQVYTLPPSRCELTKNQVSLSCAVKGFYPSDIAVEWESNGQPENNYKTTPPVLDSDGSFFLVSKLTVDKSRWQQGNVFSCSVMHEALHNHYTQKSLSLSPDYKDDDDK EPKSSDKTHTCPPCPAPELLGGPSVFLFPPKPKDTLMISRTPEVTCVVVDVSHEDPEVKFNWYVDGVEVHNAKTKPREEQYNSTYRVVSVLTVLHQDWLNGKEYKCKVSNKALPAPIEKTISKAKGQPREPQVCTLPPSRDELTKNQVSLWCLVKGFYPSDIAVEWESNGQPENNYKTTPPVLDSDGSFFLYSKLTVDKSRWQQGNVFSCSVMHEALHNRYTQKSLSLSP light: DIVMTQSPLSLPVTPGEPASISCRSSQSLVHSNRITYLHWYQQKPGQAPRLLIYKVSNRFSGVPDRFSGSGSGTDFTLKISRVEAEDVGVYYCGQGTQVPYTFGQGTKLEIKRTVAAPSVFIFPPSDEQLKSGTASVVCLLNNFYPREAKVQWKVDNALQSGNSQESVTEQDSKDSTYSLSSTLTLSKADYEKHKVYACEVTHQGLSSPVTKSFNRGEC
1	GLS3000 N30Q (Kabat) L chain altered form, one-arm antibody with CE115HA000 (antibody, human IgG1, kappa, L234A L235A, N297A, name in Kabat numbering, one-arm antibody) heavy: QVQLVESGGGVVQPGRSLRLSCAASGFTFSNAWMHWVRQAPGKGLEWVAQIKAKSNNYATYYAESVKGRFTISRDDSKNSLYLQMNSLKTEDTAVYYCRYVHYGAYYGVDAWGQGTTVTVSSASTKGPSVFPLAPSSKSTSGGTAALGCLVKDYFPEPVTVSWNSGALTSGVHTFPAVLQSSGLYSLSSVVTVPSSSLGTQTYICNVNHKPSNTKVDKKVEPKSCDKTHTCPPCPAPEAAGGPSVFLFPPKPKDTLMISRTPEVTCVVVDVSHEDPEVKFNWYVDGVEVHNAKTKPREEQYASTYRVVSVLTVLHQDWLNGKEYKCKVSNKALPAPIEKTISKAKGQPREPQVYTLPPSRCELTKNQVSLSCAVKGFYPSDIAVEWESNGQPENNYKTTPPVLDSDGSFFLVSKLTVDKSRWQQGNVFSCSVMHEALHNHYTQKSLSLSPDYKDDDDK EPKSSDKTHTCPPCPAPELLGGPSVFLFPPKPKDTLMISRTPEVTCVVVDVSHEDPEVKFNWYVDGVEVHNAKTKPREEQYNSTYRVVSVLTVLHQDWLNGKEYKCKVSNKALPAPIEKTISKAKGQPREPQVCTLPPSRDELTKNQVSLWCLVKGFYPSDIAVEWESNGQPENNYKTTPPVLDSDGSFFLYSKLTVDKSRWQQGNVFSCSVMHEALHNRYTQKSLSLSP light: DIVMTQSPLSLPVTPGEPASISCRSSQSLVHSNRQTYLHWYQQKPGQAPRLLIYKVSNRFSGVPDRFSGSGSGTDFTLKISRVEAEDVGVYYCGQGTQVPYTFGQGTKLEIKRTVAAPSVFIFPPSDEQLKSGTASVVCLLNNFYPREAKVQWKVDNALQSGNSQESVTEQDSKDSTYSLSSTLTLSKADYEKHKVYACEVTHQGLSSPVTKSFNRGEC
1.35	GLS3000 N30K (Kabat) L chain altered form, one-arm antibody with CE115HA000 (antibody, human IgG1, kappa, L234A L235A, N297A, name in Kabat numbering, one-arm antibody) heavy: QVQLVESGGGVVQPGRSLRLSCAASGFTFSNAWMHWVRQAPGKGLEWVAQIKAKSNNYATYYAESVKGRFTISRDDSKNSLYLQMNSLKTEDTAVYYCRYVHYGAYYGVDAWGQGTTVTVSSASTKGPSVFPLAPSSKSTSGGTAALGCLVKDYFPEPVTVSWNSGALTSGVHTFPAVLQSSGLYSLSSVVTVPSSSLGTQTYICNVNHKPSNTKVDKKVEPKSCDKTHTCPPCPAPEAAGGPSVFLFPPKPKDTLMISRTPEVTCVVVDVSHEDPEVKFNWYVDGVEVHNAKTKPREEQYASTYRVVSVLTVLHQDWLNGKEYKCKVSNKALPAPIEKTISKAKGQPREPQVYTLPPSRCELTKNQVSLSCAVKGFYPSDIAVEWESNGQPENNYKTTPPVLDSDGSFFLVSKLTVDKSRWQQGNVFSCSVMHEALHNHYTQKSLSLSPDYKDDDDK EPKSSDKTHTCPPCPAPELLGGPSVFLFPPKPKDTLMISRTPEVTCVVVDVSHEDPEVKFNWYVDGVEVHNAKTKPREEQYNSTYRVVSVLTVLHQDWLNGKEYKCKVSNKALPAPIEKTISKAKGQPREPQVCTLPPSRDELTKNQVSLWCLVKGFYPSDIAVEWESNGQPENNYKTTPPVLDSDGSFFLYSKLTVDKSRWQQGNVFSCSVMHEALHNRYTQKSLSLSP light: DIVMTQSPLSLPVTPGEPASISCRSSQSLVHSNRKTYLHWYQQKPGQAPRLLIYKVSNRFSGVPDRFSGSGSGTDFTLKISRVEAEDVGVYYCGQGTQVPYTFGQGTKLEIKRTVAAPSVFIFPPSDEQLKSGTASVVCLLNNFYPREAKVQWKVDNALQSGNSQESVTEQDSKDSTYSLSSTLTLSKADYEKHKVYACEVTHQGLSSPVTKSFNRGEC
12.1	GLS3000 N30P (Kabat) L chain altered form, one-arm antibody with CE115HA000 (antibody, human IgG1, kappa, L234A L235A, N297A, name in Kabat numbering, one-arm antibody) heavy: QVQLVESGGGVVQPGRSLRLSCAASGFTFSNAWMHWVRQAPGKGLEWVAQIKAKSNNYATYYAESVKGRFTISRDDSKNSLYLQMNSLKTEDTAVYYCRYVHYGAYYGVDAWGQGTTVTVSSASTKGPSVFPLAPSSKSTSGGTAALGCLVKDYFPEPVTVSWNSGALTSGVHTFPAVLQSSGLYSLSSVVTVPSSSLGTQTYICNVNHKPSNTKVDKKVEPKSCDKTHTCPPCPAPEAAGGPSVFLFPPKPKDTLMISRTPEVTCVVVDVSHEDPEVKFNWYVDGVEVHNAKTKPREEQYASTYRVVSVLTVLHQDWLNGKEYKCKVSNKALPAPIEKTISKAKGQPREPQVYTLPPSRCELTKNQVSLSCAVKGFYPSDIAVEWESNGQPENNYKTTPPVLDSDGSFFLVSKLTVDKSRWQQGNVFSCSVMHEALHNHYTQKSLSLSPDYKDDDDK EPKSSDKTHTCPPCPAPELLGGPSVFLFPPKPKDTLMISRTPEVTCVVVDVSHEDPEVKFNWYVDGVEVHNAKTKPREEQYNSTYRVVSVLTVLHQDWLNGKEYKCKVSNKALPAPIEKTISKAKGQPREPQVCTLPPSRDELTKNQVSLWCLVKGFYPSDIAVEWESNGQPENNYKTTPPVLDSDGSFFLYSKLTVDKSRWQQGNVFSCSVMHEALHNRYTQKSLSLSP light: DIVMTQSPLSLPVTPGEPASISCRSSQSLVHSNRPTYLHWYQQKPGQAPRLLIYKVSNRFSGVPDRFSGSGSGTDFTLKISRVEAEDVGVYYCGQGTQVPYTFGQGTKLEIKRTVAAPSVFIFPPSDEQLKSGTASVVCLLNNFYPREAKVQWKVDNALQSGNSQESVTEQDSKDSTYSLSSTLTLSKADYEKHKVYACEVTHQGLSSPVTKSFNRGEC
1.19	GLS3000 N30L (Kabat) L chain altered form, one-arm antibody with CE115HA000 (antibody, human IgG1, kappa, L234A L235A, N297A, name in Kabat numbering, one-arm antibody) heavy: QVQLVESGGGVVQPGRSLRLSCAASGFTFSNAWMHWVRQAPGKGLEWVAQIKAKSNNYATYYAESVKGRFTISRDDSKNSLYLQMNSLKTEDTAVYYCRYVHYGAYYGVDAWGQGTTVTVSSASTKGPSVFPLAPSSKSTSGGTAALGCLVKDYFPEPVTVSWNSGALTSGVHTFPAVLQSSGLYSLSSVVTVPSSSLGTQTYICNVNHKPSNTKVDKKVEPKSCDKTHTCPPCPAPEAAGGPSVFLFPPKPKDTLMISRTPEVTCVVVDVSHEDPEVKFNWYVDGVEVHNAKTKPREEQYASTYRVVSVLTVLHQDWLNGKEYKCKVSNKALPAPIEKTISKAKGQPREPQVYTLPPSRCELTKNQVSLSCAVKGFYPSDIAVEWESNGQPENNYKTTPPVLDSDGSFFLVSKLTVDKSRWQQGNVFSCSVMHEALHNHYTQKSLSLSPDYKDDDDK EPKSSDKTHTCPPCPAPELLGGPSVFLFPPKPKDTLMISRTPEVTCVVVDVSHEDPEVKFNWYVDGVEVHNAKTKPREEQYNSTYRVVSVLTVLHQDWLNGKEYKCKVSNKALPAPIEKTISKAKGQPREPQVCTLPPSRDELTKNQVSLWCLVKGFYPSDIAVEWESNGQPENNYKTTPPVLDSDGSFFLYSKLTVDKSRWQQGNVFSCSVMHEALHNRYTQKSLSLSP light: DIVMTQSPLSLPVTPGEPASISCRSSQSLVHSNRLTYLHWYQQKPGQAPRLLIYKVSNRFSGVPDRFSGSGSGTDFTLKISRVEAEDVGVYYCGQGTQVPYTFGQGTKLEIKRTVAAPSVFIFPPSDEQLKSGTASVVCLLNNFYPREAKVQWKVDNALQSGNSQESVTEQDSKDSTYSLSSTLTLSKADYEKHKVYACEVTHQGLSSPVTKSFNRGEC
1.2	GLS3000 N30M (Kabat) L chain altered form, one-arm antibody with CE115HA000 (antibody, human IgG1, kappa, L234A L235A, N297A, name in Kabat numbering, one-arm antibody) heavy: QVQLVESGGGVVQPGRSLRLSCAASGFTFSNAWMHWVRQAPGKGLEWVAQIKAKSNNYATYYAESVKGRFTISRDDSKNSLYLQMNSLKTEDTAVYYCRYVHYGAYYGVDAWGQGTTVTVSSASTKGPSVFPLAPSSKSTSGGTAALGCLVKDYFPEPVTVSWNSGALTSGVHTFPAVLQSSGLYSLSSVVTVPSSSLGTQTYICNVNHKPSNTKVDKKVEPKSCDKTHTCPPCPAPEAAGGPSVFLFPPKPKDTLMISRTPEVTCVVVDVSHEDPEVKFNWYVDGVEVHNAKTKPREEQYASTYRVVSVLTVLHQDWLNGKEYKCKVSNKALPAPIEKTISKAKGQPREPQVYTLPPSRCELTKNQVSLSCAVKGFYPSDIAVEWESNGQPENNYKTTPPVLDSDGSFFLVSKLTVDKSRWQQGNVFSCSVMHEALHNHYTQKSLSLSPDYKDDDDK EPKSSDKTHTCPPCPAPELLGGPSVFLFPPKPKDTLMISRTPEVTCVVVDVSHEDPEVKFNWYVDGVEVHNAKTKPREEQYNSTYRVVSVLTVLHQDWLNGKEYKCKVSNKALPAPIEKTISKAKGQPREPQVCTLPPSRDELTKNQVSLWCLVKGFYPSDIAVEWESNGQPENNYKTTPPVLDSDGSFFLYSKLTVDKSRWQQGNVFSCSVMHEALHNRYTQKSLSLSP light: DIVMTQSPLSLPVTPGEPASISCRSSQSLVHSNRMTYLHWYQQKPGQAPRLLIYKVSNRFSGVPDRFSGSGSGTDFTLKISRVEAEDVGVYYCGQGTQVPYTFGQGTKLEIKRTVAAPSVFIFPPSDEQLKSGTASVVCLLNNFYPREAKVQWKVDNALQSGNSQESVTEQDSKDSTYSLSSTLTLSKADYEKHKVYACEVTHQGLSSPVTKSFNRGEC
